Experiment [1] concerns the target HIV-1 envelope Q168 (subtype A) (HIV-1 (subtype A)). As to the kind of experiment: cell-based or functional assay.
For experiment [2], the target named is HIV-1 envelope pDOL (subtype B) (HIV-1 (subtype B)). As to the kind of experiment: cell-based or functional assay.

B1: GPI-scFv (TG15): scFv/hinge/his-tag/DAF, anti-HIV-1 gp41 single-chain Fv derived from human monoclonal antibody TG15, GPI-anchored (scFv)
scFv: QVQLQQWGAGLLKPSETLSLTCAVYGDSFGGHHWSWIRQPPGKGLEWIGEINFLGNTNYNPSLKSRVAISKDTSKNQFSLTLNSATAADTAVYFCARRETMETASRKRAFDIWGQGTMETVTVSAGGGGSGGGGSGGGGSAELMETTQSPPTLSASVGDRVTITCRASQSLSGWVAWYQQKPGKAPKLLIYKASTLESGVPSRFSGSGSGTVFALTISSLQPDDSATYYCQQHSAFSSTFGQGTKLEIKRTPLGDTTHTSGHHHHHHGSGTTSGTTRLLSGHTCFTLTGLLGTLVTMETGLLT
In the case of B1, the figures for the “relative luciferase activity (RLA), single-cycle pseudotype infectivity, CEMss-GPI-scFv compared to CEMss-eGFP” value in experiment [1] and in experiment [2] were 180 fold reduction and 8 fold reduction, respectively.

The record behind these values is patent EP2096121A1 (Institut Pasteur Of Shanghai, dated 2009).
